Measured values taken from publication PMC8724738, “Exon‐independent recruitment of SRSF1 is mediated by U1 snRNP stem‐loop 3”.

Columns and labels:
FUS RRM = FUS RRM (UniProt P35637 285-371); experiment: NMR; 30 C; NMR/ITC: 10 mM NaPO4 pH 7.0, 50 mM L-Arg, 50 mM L-Glu, 5 mM DTT (TCEP for ITC); NMR 313 K (FUS 30 C), ITC 27 C; single-molecule: 50% nuclear extract, 3.2 mM MgCl2, 50 mM K-glutamate, 20 mM HEPES pH 7.5, 1.5 mM ATP, 30 C; conditions: protein: recombinant; hairpin
GB1-SRSF1ΔRS = GB1-SRSF1ΔRS (UniProt Q07955 1-197, del198-248); experiment: ITC; 27 C; NMR buffer with TCEP; NMR/ITC: 10 mM NaPO4 pH 7.0, 50 mM L-Arg, 50 mM L-Glu, 5 mM DTT (TCEP for ITC); NMR 313 K (FUS 30 C), ITC 27 C; single-molecule: 50% nuclear extract, 3.2 mM MgCl2, 50 mM K-glutamate, 20 mM HEPES pH 7.5, 1.5 mM ATP, 30 C; conditions: protein: recombinant; hairpin
Sequence of GB1-SRSF1ΔRS (Q07955 1-197, stated change not applied): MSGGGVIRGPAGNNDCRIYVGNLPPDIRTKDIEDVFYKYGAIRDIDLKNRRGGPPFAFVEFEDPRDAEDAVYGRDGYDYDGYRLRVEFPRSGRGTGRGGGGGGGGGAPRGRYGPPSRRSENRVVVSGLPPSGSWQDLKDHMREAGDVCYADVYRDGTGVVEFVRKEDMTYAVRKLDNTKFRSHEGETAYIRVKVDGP

Sequence of FUS RRM (P35637 285-371): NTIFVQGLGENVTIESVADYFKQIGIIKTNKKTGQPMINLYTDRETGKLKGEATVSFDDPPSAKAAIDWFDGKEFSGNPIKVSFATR

GCGAUUUCCCCAAAUGUGGGAAACUCGC (structured_RNA) [U1 snRNA stem-loop 3 (SL3) wild type]
binding result (FUS RRM): binds
Kd (GB1-SRSF1ΔRS): 10.9 ± 2.8 µM
